# From patent US20200079823A1
# Target: cathepsin B
substance,measurement,value
surugamide I (13) (peptide),IC50 of cathepsin B inhibition (fluorescence-based kit assay),9 µM
